This series in a line: yeast display, Sf9 membrane polyspecificity reagent, FACS + sequencing; frameworks hold sequencing errors. The method, boiled down:
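A synthetic nanobody library was expressed on Saccharomyces cerevisiae BJ5465 by galactose induction for 36–48 hours. The library was stained for 1 hour at 4 °C with 10% biotinylated, detergent-solubilized Sf9 membrane reagent and enriched with streptavidin microbeads before FACS. Low and high (top ~1%) gates were set on anti-HA fluorescence for expression and streptavidin fluorescence for reagent binding, and each polyreactivity label reflects the gate of origin.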
For “QVQLVESGGRLVKARGSLRISFADSVRTFIRNAMGWYRQAPGKERELVAAITSSGGSTYYADSVKGRFTISRDNAKITVYLQMNILKPEDTAVYYCAAVNSKRHRRYNYWGQGTQVTVSS”, the “polyreactivity (PSR sort gate)” value was “high polyreactivity”. Then “QVQLVESGGGLVQAGGSLRLSCAASGSTFYTNAMGLYRQAPGKERELVAAISWSAGSTYYADSVKGRFTISRDNAKNTVYLQMNSLKPEDTAVYYCAAYYWYKWGYKYGYWGQGTQVTVSS”, with “high polyreactivity”; and “QVQLVESGGGLVQAGGSLRLSCAAFGRIFQYYAMGWYRQAPGKERELVAAITRSGGSTYYADSVKGRFTISRDNAKNTVYLQMNSLKPEDTAVYYCAAYSRYTVREGYDYWGQGTQVTVSS”, with “high polyreactivity”; and “QVQLVESGGGLVQAGGSLRLSCADSGSIFAYYARGWYRQAPGKERELVAAISQSGGSTYYAYSVKGRFTISRDTAKNTVYLQMNSLKPEDTAVYYCAARFRYGYTGYRYDYWGQGTQVTVSS”, with “high polyreactivity”.

“QVQLVESGGGLVQAGGSLRLSCAASGFTFSSYAMGWYRQAPGKERELVAAITISGGRTYYADSVKGRFTISRDNAKNTVYLQMNSLKPEDTAVYYCAALYVEGQNHYGYWGQGTQVTVSS”: the “polyreactivity (PSR sort gate)” value is reported as “high polyreactivity”.

As to “QVQLEESRGGLVQAGGSLRLSCAASGFIIKHYAMGWYRQAPRKERELVAAISKRGGSTYYADSVKGRFTISRDNAKNTVYLQMNSLKPEDTAVYYCNAYLYVWHYPSGDEYDYWGQGTQVTVSS”, the “polyreactivity (PSR sort gate)” value is reported as “high polyreactivity”. Then “QVHLVESGGCLVQARGSLRLSCAASGRTIQLYAMGWYRHPHGKVMELVAAITWSSGRTYYADSVKGRFTISRDNANNTVYLQMNRLKQEDTAVYYCNAPRGGRNTVYYWGQGTQVTVSS”, with “high polyreactivity”; and “QVQLVESGGGLVQAGGSLRLSCAASGFIFDQYDMGWYRQAPGKERELVAAISDSGGSTYYADSVKGRFTISRDNAKNTVYLQMNSLKPEDTAVYYCAAGSYLAFGGLWFYYWGQGTQVTVSS”, with “high polyreactivity”; and “QVQLVESGGGLVQAGCSLRLSCAASGRTFDDYAMGWYRQAPGKERELVAAISSRCGSTYYADSVKGRFTISRDNAKNSVYLQMNSLKPEDTAVYYCNTLQSSHGSSQYDSWGQGTQVTVSS”, with “low polyreactivity”.

Take “QVQLVESGGGLVQAGGSLRLSCAASGRTFRWYAMGWYRQAPGKERELVAAISGSGDRTYYADSVKGRFTISRDNAKNTVYLQMNSLKPEDTAVYYCNKAYLLYYTYARGDYWGQGTQVTVSS”: the “polyreactivity (PSR sort gate)” value is “high polyreactivity”. Turning to “QVQLVESGGGLVQAGGSLRLSCAASGSIFDDYAMGWYRQAPGKEREFVADISYNGGTTYSADSVKGRFTISRDNAKNTVYLQMNSLKPEDTAVYYCAADRTNYTYYLPYDYWGPGTQVTVSS”, the “polyreactivity (PSR sort gate)” value is “low polyreactivity”. Then “QVQLVESGGGLVQAGGSLRLSCAASGSTFYHYAMGWYRQAPGKERELVAAISTSGGRTYYADSVKGRFTISRDNAKNTVYLQMNSLKPEDTAVYYCAARSYRYYYGFDYWGQGTQVTVSS”, with “low polyreactivity”. Consider “QVQLVESGGGLVQAGGSLRLSCAASGSIFGSNAMGWYRQAPGKERELVASITSSGGSTHYADSVKGRFTISRDNAKNTVYLQMNSLKPEDTAVYYCATRAYGYYRWLYDYWGQGTQVTVSS”, for which the “polyreactivity (PSR sort gate)” value is recorded as “low polyreactivity”.

For “QVQLQECGGGLVQAGGSLRLSCAASGHIFDADIMGWYRQAPGKERELVASVTDGGSTNYADSVKGRFTISRDNAKNTVYLQMNSLKPEATAVFYCAAIVYPDILTYFDYDYDYFYWGQGTQVTVGS”, the “polyreactivity (PSR sort gate)” value is listed as “low polyreactivity”. On to “QVQLVESGGGLVQAGGSLRLSCAASGFTFTYYVMGWYRQAPGKERELVAAISVSGGSTYYADSVKGRFTITRDNAKNTVYLQMNSLKPEDTAVYYCAARSPFYSYTPGYEYWGQGTQVTVSS”, for which the “polyreactivity (PSR sort gate)” value is listed as “high polyreactivity”.

With “QVQLVESGGGLVQAGGSLRLSCAASGRTFRYYAMGWYRQAPGKERELVAAISRSGGSTYYAVSVKGRFTISRDNAKNTVYLQMNSLTPEVTAVYYCAARYYVPWFGPSKYTPYDYWGQGIQVTVSS”, the “polyreactivity (PSR sort gate)” value is listed as “high polyreactivity”. “QVQLVESGGGLVQAGCSLRLSCAASGSTLSFNAMGWYRQAPGKERELVAGITYSGGSTYYADSVKGRFTISRDNAKNTVYLLMNSLKPEDTAFYYCNKACGVYYGHLDYWGQGTQVTVSS”: the “polyreactivity (PSR sort gate)” value is “low polyreactivity”.

“QVQLVESGGGLVQAGGSLRLSCAASGRIFPYYAIGWYRQAPGKERELVASTNYADSVKGRFTISRDNAKNTVYLQMNSLKPEDTAVYYCNADSVYPPGSDYVVRDGNFDYWGQGTQVTVSS”: the “polyreactivity (PSR sort gate)” value was “low polyreactivity”. Then “QVQLVESGGGLVQAGGSLRLSCAASGLTFHRYAMGWYRQAPGKERELVAAINYSGGRTYYADSVKGRFTISRDNAKNTVYLQMNSLKPEDTAVYYCNKCYVYHPGSLEYGYWGQGTQVTVSS”, with “high polyreactivity”. Then “QVQLVESGGGLVQAGGSLRLSCAASGITSGTYAMGRYRQAPGKERELVAGISRSGTRTYYADSVKGRFTISRDNAKNTVYLQMNSLKPEDTEVYYCNTYVGRRPGYGYWGQGTQVTVSS”, with “high polyreactivity”. As for “QVQLVESGGGLVQAGGSLRLSCAPSGRIFRYYAMGWYRQAPGKERELVATIRSGGSTNYADSVKGRFTISRDNEKNTVYLQMNSLKPEDTAVYYCAATGGILSTYDYWGQVTQVTVSS”, the “polyreactivity (PSR sort gate)” value is on record as “high polyreactivity”. “QVQLVESGRGLVQEGGSLRLSCAPSGSTFTSYAMGWSRQAPGKERELVAAINYSGGSTNYADSVKGRFTLSRDNAMNTVYLQMNSLKPEDTAVYYFNVVRRSPGDYSYYYWGQGTQVTVSS”: the “polyreactivity (PSR sort gate)” value is “low polyreactivity”.

For “QVQLVESGGGLVQAGGSLRLSCAASGSIFYTNAMGWYRQAPGKERELVAVITASGGSTYYADSVKGRFTISRDNAKNTVYLQMNSLKPEDTSVYYCAADPVFNYDYWGQGTQVTVSS”, the “polyreactivity (PSR sort gate)” value is “low polyreactivity”.

In the case of “QVQLVESGGGLVQAGGSLRLSCAASGIIFPYYAMGWYREAPGIERELVAGLDSSGSSTNYADSVKGRFTISRDTAKTTVYLQITSLQPEDTAVYYCAKVTSSGDAVLTQIPYGYDYWGQGTQVTVSS”, the “polyreactivity (PSR sort gate)” value was “low polyreactivity”. Then “QVQLVESGGGLVQAGGSLRLSCAASGSTFYKYTMGWYRQAPGKERELVAAISGSGTTTYYADSVKGRFTISRDNAKNTVYLQMNSLNPEDTAVYYCAASLYLYNSRITVRSHYYYWGQGTQVTVSS”, with “high polyreactivity”; and “QVQLVESGGGLVQAGGSLRLSCAASGRTFYRYAMGCYRQAPGKERELVAAISWRGGSTNYADSVKGRFTISRDNAKNTVYLQMNSLKPEDTAVYYCNAKFFLPATTRYYYWGQGTQVTVSS”, with “high polyreactivity”; and “QVQLVESGGGLVQAGGSLRLSCAASGRIFNLYGMGWYRQAPGKEREFVATITWSGVTTYADSVKGRFTISRDNAKNTVYLQMNSLKPEDTAVYYCAADYRYRTRWYDYWGQGTQVTVSS”, with “high polyreactivity”. On to “QVQLVESGGGLVQAGGSLRISCVASARTFYRYAMGWYRQAPGKERELVAVITRGGSTYYADSVKGRFTISRDNAKNPVYLQMNSLKPEDTAVYFCNADGRVQRKYDYWGQGTQVTVSS”, for which the “polyreactivity (PSR sort gate)” value is reported as “high polyreactivity”. For the sequence “QVQLVESGGGLVQAGGSLRLSCAASGSIFNRYAMGWYRQAPGKERELVAAITWNGGSTYYADSVKGRFTISRDNAKNTVYLQMNSLKPEDTAVYYCNKASLRGSYARYSYDYWGQGTQVTVSS”, the “polyreactivity (PSR sort gate)” value is “high polyreactivity”.

As to “QVQLVESGGGLVQAGGSLRLSCAASGITFSYALGWYRQAPGKERELVAGITTSGGSTYADSVKGRFTISRDNAKNTVYLQMNSLKPEDTAVYYCAADRSAVQFSAFLEYDYWGQGSQVTVSS”, the “polyreactivity (PSR sort gate)” value is on record as “low polyreactivity”. Then “QVQLVESGGGLVQAGGSLRLSCAASGFIFRYYARGWYRQGPGKERELVAAIDESGGSTYYADSVKGSFTISRDNSKKTVYLQMNSLKAVDTEVYYCAAYSNFYLNYGYGYWGQVTQVTVSS”, with “high polyreactivity”; and “QVQLVESRGGLVQAGGSHRLSCAASGSIFGANAMGWYRQAPGKERELVAAITSGSGTNYADSVKGRFTISRDNAKNTVYLQMISLNPEDTAVYYCAAVVLYQGRYDYWGQGTQVTVSS”, with “low polyreactivity”. Then “QVQLVESGGGLVQAGVSLRLSCAASGFILGYNAMGWYRQAPAKERELVAAITRGGSTYYADSVKGRFTISRDNSKNTVYLQMNSLKPEDTAVYYCAAAYRGYSSTLWLGHWGQGTQVTVSS”, with “high polyreactivity”; and “QVQLVESGGGLVQAGGSLRLSCAASGFIFPPYAMGWYRQAPGKERELVAAIRISGGSTYYADSVKGRFTISRDNAKNTVYLQMNSLKPEDTAVYYCAARYVSSTPAYAYYYWGQGTQVTVSS”, with “high polyreactivity”; and “QVQLVESGGGLVQAGGSLRLSCAASGRIFYQNALGWYRQAPGKERELVADITSGGSTYYADSVKGRFTISRDNAKNTVYLQMNSLKPEDTAVYDCNTPSGPGTVGSYRRKWYGYWGQGTQVTVSS”, with “low polyreactivity”. Then “QVQLVESGGGLVQAGGSLRLSCAASGFIFRYYAMGWYRQAPGKERELVATISSGGGTHYADSVKGRFTISRDNAKNTVYLQMNCLKPEDTAVYYCNKVSYRRRSVLLHYDYWGQGTQVTVSS”, with “high polyreactivity”. In the case of “QVQLVESGGGLVQAGGSLRLSCAASGFIFEPNAMGWYRQAPGKERELVAAISWSGGSTYYADSVKGRFTISRDNAKNTVYLQMNSLKPEDTAVYYCNAAVRGVGELDYWGQGTQVTVSS”, the “polyreactivity (PSR sort gate)” value was “high polyreactivity”. Turning to “QVQLVESGGGLVQAGGSLRLSCAASGSIFGFYMGWYRQAPGKERELVAAISGSGGNTYYADSVKGRFTISRDNAKNTVYLQMNSLKPEDTAVYYCAAVSRHRGWDRYYWGQGTQVTVSS”, the “polyreactivity (PSR sort gate)” value was “high polyreactivity”. Then “QVRLVESGGGLVQAGGSLRLSCAASGRTFTHNVMGWYRQAPGKERELVAGISSTGGSTYYADSVKVRFTISRDNAKNTVYLQMNSRKPEDPAVYYCNADYASYYRYSRPLEMNYWGQGTQVTVSS”, with “low polyreactivity”; and “QVQLVESGGGLVQAGGSLRLSCAASGLIFVNYAMGWYRQAPGKERELVAAISVSGGSTYYADSVKGRFTISRDNAKNTVYLQMNSLNPEDTAVYYCNAYFRSQRYGYRVDYWGQGTQVTVSS”, with “high polyreactivity”.

The values above are taken from the nanobody polyreactivity screen of Harvey et al. (2022).
